The text below walks through data of patent US20200276330A1 (NANOMAB TECHNOLOGY, published 2020).

Residue numbers refer to the chain shown, from its start.

The target in test [1] is T1, PD-L1 (coated on the ELISA plate) (UniProt Q9NZQ7 19-238, limits assumed).
T1 construct: also called B7-H1; CD274
The test is described as follows: ELISA with gradient dilution of nanobody on coated PD-L1. On the procedure:
(1) The PD-L1 was coated on the plate, and IgG and NaHCO₃ (100 mM, pH8.2) were used as blank controls. All were incubated overnight at 4° C.
(3) The purified nanobodies were diluted, and reacted with coated PD-L1, IgG and NaHCO₃ at room temperature for 1 hour.

Test [2] deals with T2, PD-L1 on HCC827 cells (high PD-L1 expression) and A549 cells (low PD-L1 expression) (UniProt Q9NZQ7 19-290, limits assumed).
T2 construct: whole, on cells; HCC827 and A549 are known human lung cancer lines
In words: flow cytometry on A549 cells (low PD-L1 expression), anti-HA Alexa Fluor 488.

The target of test [3] is T2, PD-L1 on HCC827 cells (high PD-L1 …). In words: flow cytometry on HCC827 cells (high PD-L1 expression), anti-HA Alexa Fluor 488.
The target in test [4] is T3, human PD-L1 full-length protein on transiently transfected HEK293F cells (human, UniProt Q9NZQ7 19-290).
T3 construct: whole, on cells
The test is described as follows: flow cytometry competition: 10 ug nanobody + 5 ug hPD-1-Fc-Biotin on HEK293F cells expressing human PD-L1, SA-PE. As for the experimental part: (1) 1×10⁶ HEK293F cells transiently transfected to express human PD-L1 full-length protein were collected and resuspended in 0.5% BSA-PBS buffer. And 10 μg of anti-PD-L1 nanobodies were added, and a positive control, a negative control and blank group (PBS) were set up. All samples were incubated with 5 μg of hPD-1-Fc-Biotin for 20 minutes at 4° C.
(2) The cells were washed twice by PBS and incubated with SA-PE from eBioscience for 20 minutes at 4° C. Cells were washed again with PBS twice and were detected by flow cytometry.

T1 sequence (Q9NZQ7 19-238 limits assumed): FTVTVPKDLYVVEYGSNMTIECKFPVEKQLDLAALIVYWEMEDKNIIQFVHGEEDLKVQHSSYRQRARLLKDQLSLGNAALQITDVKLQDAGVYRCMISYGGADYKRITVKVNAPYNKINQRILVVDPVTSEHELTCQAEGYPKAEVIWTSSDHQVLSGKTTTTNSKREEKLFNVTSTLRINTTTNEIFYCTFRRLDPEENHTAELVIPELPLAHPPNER
T2 sequence (Q9NZQ7 19-290 limits assumed): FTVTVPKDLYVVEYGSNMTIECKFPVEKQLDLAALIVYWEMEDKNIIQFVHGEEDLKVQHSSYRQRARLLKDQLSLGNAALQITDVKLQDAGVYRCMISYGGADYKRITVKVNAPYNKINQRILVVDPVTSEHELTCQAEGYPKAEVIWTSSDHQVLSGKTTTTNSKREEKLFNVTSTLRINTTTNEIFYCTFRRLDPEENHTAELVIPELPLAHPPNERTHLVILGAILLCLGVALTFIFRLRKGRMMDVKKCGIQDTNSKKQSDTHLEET
T3 sequence (Q9NZQ7 19-290): as the sequence (Q9NZQ7 19-290 limits assumed) above

B1: Nanobody No. 1 (VHH)
VHH: QVQLQESGGGSVQTGGSLRLSCAASTSIYSNNYMAWFSQAPGKGREGVAAVYIDDGRPYYADSVKGRFTISLDSAKNTVYLQMNRLKPEDTAMYYCAAAPGPLSHNYWYTSANYDYWGQGTQVTVSS
notes: Expressed in E. coli WK6 and purified on a nickel column; not shown: HA and His tags (implied by anti-HA detection and nickel column)
As to B1, the affinity in test [1], expressed as Kd, was 7.96 nM. In addition, the “positive rate, A549” value in test [2] was 11.5%. Besides, the “positive rate, HCC827” value in test [3] turned out to be 88.1%. For the same molecule, the “PD-1/PD-L1 Inhibitory effect” value in test [4] was found to be 19.3%.

B2: Nanobody No. 3 (VHH)
VHH: B1 VHH with A23T, A40S, I53M, V79M, R85S, H105R
notes: as for B1
In the case of B2, the Kd in test [1] turned out to be 4.46 nM. Besides, in test [2], the “positive rate, A549” value was found to be 13.5%. Also, in test [3], the “positive rate, HCC827” value was 66.5%. The “PD-1/PD-L1 Inhibitory effect” value in test [4] turned out to be 19.2%.

B3: Nanobody No. 2 (VHH)
VHH: QVQLQESGGGSVQAGGSLRLSCAASGYTYSSDGMGWFRQTPGKEREGVAAISPTGRRTEYADSVKGRFTISRDNNKNMLSLQMNSLKPEDTGMYYCAREGSWSFSLANSAVRSWGQGTQVTVSS
notes: as for B1
In test [1], B3 came in with a Kd of 1.62 nM. Moreover, the “positive rate, A549” value in test [2] worked out at 32.6%. In addition, the “positive rate, HCC827” value in test [3] came out at 92.8%. In test [4], the “PD-1/PD-L1 Inhibitory effect” value was 19.3%.
